This is an account of results in paper PMC3664427 (Circulation research, 2011).

In general, Kd refers to the free concentration of one partner at which half of the binding sites on the other are occupied at equilibrium, for simple one-to-one binding. A lower Kd goes with a tighter complex.

For one experiment, the target named is p53 DNA binding domain (UniProt P04637 94-312). Nature of the experiment: SPR.
Experiment [1] deals with fluorescein-labelled p53DBD (UniProt P04637 94-312, fluorescein label (site not stated)). Nature of the experiment: fluorescence polarisation.
Chain of fluorescein-labelled p53DBD (P04637 94-312): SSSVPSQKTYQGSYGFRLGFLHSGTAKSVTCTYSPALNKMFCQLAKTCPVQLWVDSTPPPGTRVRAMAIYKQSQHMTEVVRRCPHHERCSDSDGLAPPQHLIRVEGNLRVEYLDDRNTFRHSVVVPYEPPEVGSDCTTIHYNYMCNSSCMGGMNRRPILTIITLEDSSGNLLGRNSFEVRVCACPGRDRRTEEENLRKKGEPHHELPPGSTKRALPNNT

Chain of p53 DNA binding domain (P04637 94-312): as above

B1: telethonin (natural protein, human, UniProt O15273 1-167, looked up)
chain: MATSELSCEVSEENCERREAFWAEWKDLTLSTRPEEGCSLHEEDTQRHETYHQQGQCQVLVQRSPWLMMRMGILGRGLQEYQLPYQRVLPLPIFTPAKMGATKEEREDTPIQLQELLALETALGGQCVDRQEVAEITKQLPPVVPVSKPGALRRSLSRSMSQEAQRG
Turning to B1, the Kd in the experiment with p53 DNA binding domain stood at 765 ± 30 nM; in experiment [1], 2200 nM.
